Results from patent US6391571.

What was measured:
[1] = molecular target: monobiotinylated Fab' antibody fragment; experiment: BIAcore SPR, mutein immobilized on CM5 chip, Fab' at 12.5-400 nmol/l, 25 C
[2] = molecular target: monobiotinylated Fab' antibody fragment; experiment: BIAcore SPR, mutein immobilized on CM5 chip, Fab' at 12.5-400 nmol/l, 25 C; second of 2 product lots
[3] = molecular target: monobiotinylated Fab' antibody fragment; experiment: BIAcore SPR, mutein immobilized on CM5 chip, Fab' at 12.5-400 nmol/l, 25 C; first of 2 product lots
[4] = molecular target: monobiotinylated Fab' antibody fragment; experiment: BIAcore SPR, mutein-thermo-BSA conjugate immobilized on CM5 chip, Fab' at 12.5-400 nmol/l, 25 C
[5] = molecular target: monobiotinylated Fab' antibody fragment; experiment: BIAcore SPR, streptavidin immobilized on CM5 chip, Fab' at 12.5-400 nmol/l, 25 C

Chain of SA-Ser27Arg/Ser45Arg TBSA conjugate (P02769 25-607, change not shown): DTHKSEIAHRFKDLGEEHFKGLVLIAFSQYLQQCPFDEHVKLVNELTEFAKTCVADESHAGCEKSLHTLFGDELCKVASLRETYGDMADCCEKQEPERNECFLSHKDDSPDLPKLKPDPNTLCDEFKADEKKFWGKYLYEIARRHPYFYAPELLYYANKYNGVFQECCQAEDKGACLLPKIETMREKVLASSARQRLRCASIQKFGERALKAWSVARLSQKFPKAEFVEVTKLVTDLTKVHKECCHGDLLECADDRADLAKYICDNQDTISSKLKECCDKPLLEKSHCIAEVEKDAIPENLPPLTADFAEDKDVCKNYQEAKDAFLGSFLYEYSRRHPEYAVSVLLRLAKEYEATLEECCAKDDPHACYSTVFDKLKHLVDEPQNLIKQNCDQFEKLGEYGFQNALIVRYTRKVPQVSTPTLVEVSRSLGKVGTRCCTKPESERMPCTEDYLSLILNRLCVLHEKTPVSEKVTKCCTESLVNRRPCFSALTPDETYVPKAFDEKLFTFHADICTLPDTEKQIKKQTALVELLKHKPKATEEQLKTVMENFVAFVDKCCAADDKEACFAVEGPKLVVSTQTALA
Chain of core streptavidin (wild type streptavidin) (chain): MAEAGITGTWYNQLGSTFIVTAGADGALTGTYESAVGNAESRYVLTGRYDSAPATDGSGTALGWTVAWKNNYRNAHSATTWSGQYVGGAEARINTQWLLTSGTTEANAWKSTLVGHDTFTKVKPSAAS

| Substance | Ka [1] | koff [1] | kon [1] | t/2 diss [1] | other results |
| --- | --- | --- | --- | --- | --- |
| SA-Leu25Trp/Ser45Arg | 3.6e+08 M⁻¹ | 0.00022 s⁻¹ | 79000 M⁻¹ s⁻¹ | 51.8 min |  |
| SA-Leu25Trp/Ser45Trp/Leu110Trp | 7e+07 M⁻¹ | 0.00087 s⁻¹ | 49000 M⁻¹ s⁻¹ | 13.4 min |  |
| SA-Leu25Trp/Ser45Tyr/Leu110Trp | 4.6e+07 M⁻¹ | 0.0013 s⁻¹ | 54000 M⁻¹ s⁻¹ | 8.7 min |  |
| SA-Ser27Arg/Ser45Arg |  |  |  |  | Ka [2]: 2.1e+07 M⁻¹; koff [2]: 0.0041 s⁻¹; kon [2]: 85000 M⁻¹ s⁻¹; t/2 diss [2]: 2.8 min; Ka [3]: 4.2e+07 M⁻¹; kon [3]: 130000 M⁻¹ s⁻¹; t/2 diss [3]: 3.7 min |
| SA-Ser27Arg/Ser45Arg TBSA conjugate (from UniProt P02769 25-607) |  |  |  |  | Ka [4]: 3.3e+07 M⁻¹; koff [4]: 0.003 s⁻¹; kon [4]: 100000 M⁻¹ s⁻¹; t/2 diss [4]: 3.9 min |
| SA-Ser27Arg/Ser45Arg/Leu110Trp | 7.7e+06 M⁻¹ | 0.0059 s⁻¹ | 45000 M⁻¹ s⁻¹ | 2 min |  |
| SA-Ser27Arg/Ser45Arg/Trp120Ala | 2e+07 M⁻¹ | 0.0052 s⁻¹ | 100000 M⁻¹ s⁻¹ | 2.2 min |  |
| SA-Ser45Trp/Leu110Trp | 6.1e+08 M⁻¹ | 0.00033 s⁻¹ | 140000 M⁻¹ s⁻¹ | 40.8 min |  |
| SA-Ser45Tyr/Leu110Trp | 2.7e+08 M⁻¹ | 0.00054 s⁻¹ | 130000 M⁻¹ s⁻¹ | 22.6 min |  |
| SA-Trp120Ala | 2.9e+08 M⁻¹ | 0.00023 s⁻¹ | 67000 M⁻¹ s⁻¹ | 49.4 min |  |
| core streptavidin (wild type streptavidin) |  |  |  |  | Ka [5]: > 1e+10 M⁻¹; koff [5]: < 1e-05 s⁻¹; kon [5]: 220000 M⁻¹ s⁻¹; t/2 diss [5]: > 20 h |
